In patent US20160304622A1 (GENEFRONTIER, published 2016):

How the values were obtained:
Assay in all cases: immunoblotting after reducing SDS-PAGE
[1] = molecular target: T1, recombinant human ADAMTS1 (R&D Systems) (human, UniProt Q9UHI8 253-967, limits assumed)
T1 sequence (looked up): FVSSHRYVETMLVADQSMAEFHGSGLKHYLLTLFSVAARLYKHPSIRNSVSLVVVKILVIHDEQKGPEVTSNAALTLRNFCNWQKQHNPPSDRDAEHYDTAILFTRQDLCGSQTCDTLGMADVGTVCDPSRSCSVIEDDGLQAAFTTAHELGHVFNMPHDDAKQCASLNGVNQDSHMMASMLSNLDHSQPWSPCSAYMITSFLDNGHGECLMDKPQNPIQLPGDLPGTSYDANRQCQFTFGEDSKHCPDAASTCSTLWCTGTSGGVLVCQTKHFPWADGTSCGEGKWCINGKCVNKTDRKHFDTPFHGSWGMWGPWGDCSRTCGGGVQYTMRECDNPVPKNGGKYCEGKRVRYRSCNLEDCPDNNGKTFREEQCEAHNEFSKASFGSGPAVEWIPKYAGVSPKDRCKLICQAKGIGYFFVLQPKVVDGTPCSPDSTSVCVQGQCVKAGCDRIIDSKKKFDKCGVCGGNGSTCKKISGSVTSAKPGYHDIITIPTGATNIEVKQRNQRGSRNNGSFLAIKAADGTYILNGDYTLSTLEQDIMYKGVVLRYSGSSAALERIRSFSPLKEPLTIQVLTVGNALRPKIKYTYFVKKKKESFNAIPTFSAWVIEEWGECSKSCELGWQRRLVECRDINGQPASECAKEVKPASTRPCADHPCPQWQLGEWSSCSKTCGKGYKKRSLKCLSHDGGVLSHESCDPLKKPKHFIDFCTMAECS
From the text: (§1) Recombinant proteins of human ADAMTS1 (R&D Systems), ADAMTS4, ADAMTS5 (R&D Systems), ADAMTS15 (R&D Systems), ADAM10 (R&D Systems), ADAM12 (Mochida Pharmaceutical Co., Ltd., Tokyo, Japan), ADAM17 (R&D Systems) and MMP-13 (Millipore, Billerica, Mass.) and purified human MMP-1, MMP-2, MMP-3 and MMP-9 (Daiichi Fine Chemical, Co., Ltd., Toyama, Japan) were subjected to sodium dodecyl sulfate-polyacrylamide gel electrophoresis (SDS-PAGE) under reducing conditions, and the samples resolved on the gels were transferred onto polyvinylidene difluoride (PVDF) membranes. […] After washing with phosphate buffered saline containing 0.1% Tween 20, the membranes were reacted with horseradish peroxidase-conjugated secondary antibody against human IgG (Invitrogen, Carlsbad, Calif.) for 1 h at room temperature. A chemiluminescence reagent (Pierce ECL western blotting substrate; Thermo Fisher Scientific, Waltham, Mass.) was used to make the labeled protein bands visible. All the samples were also examined on silver-stained gels, which were prepared by silver stain kit (Cosmo Bio Co., Ltd, […].).

[2] = molecular target: T2, recombinant human ADAMTS15 (R&D Systems) (human, UniProt Q8TE58 213-950, limits assumed)
T2 sequence (looked up): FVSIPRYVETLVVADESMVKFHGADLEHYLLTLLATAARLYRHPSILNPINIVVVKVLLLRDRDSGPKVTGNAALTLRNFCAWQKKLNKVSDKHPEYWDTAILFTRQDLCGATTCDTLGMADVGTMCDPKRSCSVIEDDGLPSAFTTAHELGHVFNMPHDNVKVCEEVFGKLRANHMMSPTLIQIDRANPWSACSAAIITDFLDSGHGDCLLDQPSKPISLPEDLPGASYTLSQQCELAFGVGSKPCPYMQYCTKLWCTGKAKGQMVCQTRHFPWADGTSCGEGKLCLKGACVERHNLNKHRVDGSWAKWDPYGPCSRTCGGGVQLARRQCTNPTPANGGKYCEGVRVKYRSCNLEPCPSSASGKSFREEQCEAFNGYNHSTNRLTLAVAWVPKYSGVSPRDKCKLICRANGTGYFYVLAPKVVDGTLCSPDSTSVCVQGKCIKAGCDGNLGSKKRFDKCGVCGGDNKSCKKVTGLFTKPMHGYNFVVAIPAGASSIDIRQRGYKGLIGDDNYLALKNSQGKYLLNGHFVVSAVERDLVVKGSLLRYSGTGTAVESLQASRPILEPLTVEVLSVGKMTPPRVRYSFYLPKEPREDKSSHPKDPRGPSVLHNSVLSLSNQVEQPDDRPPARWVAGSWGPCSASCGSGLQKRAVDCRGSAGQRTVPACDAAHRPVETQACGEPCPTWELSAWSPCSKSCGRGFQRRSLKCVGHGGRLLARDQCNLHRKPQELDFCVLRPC
From the text: as §1

[3] = molecular target: recombinant human ADAM17 (R&D Systems) (human, UniProt P78536 215-671, limits assumed)
From the text: as §1

[4] = molecular target: T3, purified human MMP-2 (Daiichi Fine Chemical) (human, UniProt P08253 30-660, limits assumed)
T3 sequence (looked up): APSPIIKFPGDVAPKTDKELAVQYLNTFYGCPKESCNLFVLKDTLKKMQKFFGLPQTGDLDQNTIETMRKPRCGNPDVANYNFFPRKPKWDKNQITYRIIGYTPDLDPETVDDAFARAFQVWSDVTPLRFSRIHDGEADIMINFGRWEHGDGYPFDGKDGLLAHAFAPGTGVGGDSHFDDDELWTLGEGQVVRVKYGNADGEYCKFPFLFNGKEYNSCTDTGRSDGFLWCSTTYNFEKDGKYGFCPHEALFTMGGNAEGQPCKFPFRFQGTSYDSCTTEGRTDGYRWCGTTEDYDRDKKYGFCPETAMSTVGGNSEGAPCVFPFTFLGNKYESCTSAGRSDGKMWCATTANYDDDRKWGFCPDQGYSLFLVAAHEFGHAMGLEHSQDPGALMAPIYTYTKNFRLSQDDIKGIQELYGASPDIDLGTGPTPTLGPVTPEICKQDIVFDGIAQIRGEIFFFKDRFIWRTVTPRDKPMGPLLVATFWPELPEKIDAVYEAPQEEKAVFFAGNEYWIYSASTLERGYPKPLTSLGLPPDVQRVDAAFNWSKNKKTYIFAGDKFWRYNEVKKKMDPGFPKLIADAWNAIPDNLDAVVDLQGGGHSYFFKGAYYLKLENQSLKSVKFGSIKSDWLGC
From the text: as §1

[5] = molecular target: purified human MMP-3 (Daiichi Fine Chemical) (human, UniProt P08254 18-477, limits assumed)
From the text: as §1

Measured: binding result

recombinant human ADAM17 (R&D Systems), sequence (P78536 215-671 limits assumed): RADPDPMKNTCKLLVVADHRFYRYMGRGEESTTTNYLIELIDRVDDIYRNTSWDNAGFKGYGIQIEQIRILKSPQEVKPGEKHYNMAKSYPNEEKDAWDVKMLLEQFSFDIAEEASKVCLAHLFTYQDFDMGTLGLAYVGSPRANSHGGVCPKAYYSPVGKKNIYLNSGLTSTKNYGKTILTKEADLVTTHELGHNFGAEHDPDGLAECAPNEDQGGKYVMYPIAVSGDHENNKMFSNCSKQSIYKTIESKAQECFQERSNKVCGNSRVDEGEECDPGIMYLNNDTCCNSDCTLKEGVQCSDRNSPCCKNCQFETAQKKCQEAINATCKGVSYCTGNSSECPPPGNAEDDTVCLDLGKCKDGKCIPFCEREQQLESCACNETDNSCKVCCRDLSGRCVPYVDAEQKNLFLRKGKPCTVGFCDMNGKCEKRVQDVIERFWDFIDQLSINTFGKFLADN
purified human MMP-3 (Daiichi Fine Chemical), sequence (P08254 18-477 limits assumed): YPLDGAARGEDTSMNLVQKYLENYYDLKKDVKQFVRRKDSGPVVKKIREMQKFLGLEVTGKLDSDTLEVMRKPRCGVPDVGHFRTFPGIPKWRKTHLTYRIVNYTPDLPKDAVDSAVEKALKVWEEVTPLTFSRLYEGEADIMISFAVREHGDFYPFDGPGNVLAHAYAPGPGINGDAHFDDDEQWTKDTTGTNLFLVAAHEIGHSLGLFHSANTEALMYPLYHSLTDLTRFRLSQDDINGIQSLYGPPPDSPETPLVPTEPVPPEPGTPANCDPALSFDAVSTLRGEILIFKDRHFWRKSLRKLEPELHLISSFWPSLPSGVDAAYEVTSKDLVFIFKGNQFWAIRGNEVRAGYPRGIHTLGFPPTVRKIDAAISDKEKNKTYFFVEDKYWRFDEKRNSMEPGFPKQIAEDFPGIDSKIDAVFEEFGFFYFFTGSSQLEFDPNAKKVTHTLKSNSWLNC

B1: Fab of clone 237-53 (Fab, V domains shown)
VH: QVQLVQSGAEVKKPGSSVKVSCKASGGTFSSFAISWVRQAPGQGLEWMGGIFPIFGQANYAQKFQGRVTITADESTSTAYMELSSLRSEDTAVYYCARFSDWWEWQMDYWGQGTLVTVSS
VL: DIVMTQSPDSLAVSLGERATINCRSSQSILYSSNNNYLAWYQQKPGQPPKLLIHTASARESGVPDRFSGSGSGTDFTLTISSLQAEDVAVYYCQQYYSVSITFGQGTKVEIKR
no binding (tested: 5 µg/ml): all assays above
